Patent US10011659B2, “Compositions and methods for treating cancer resistant to a tyrosine kinase inhibitor (TKI)” (Yeda Research and Development Co. Ltd., priority 2014, dated 2018)
Where a chain is given by its changes, count along the chain named. “Also recorded” adds a separate entry of the source.

What was measured:
[1] = tested on: EGFR phosphorylation in PC9ER-AZDR cells; assay: Western blot (immunoblot) of EGFR phosphorylation; format: cell-based, human; details: 1 μM, 6 hours
[2] = tested on: PC9ER-AZDR cells; assay: MTT cell survival assay; format: cell-based, human; details: 72 hours, increasing doses
Method: (§1) Cell cultures—The H1975 (ATCC; NCI-H1975_CRL-5908) lung cancer cell line (EGFR mutations: L858R and T790M, ATCC; Rockville, Md.), PC9 and erlotinib-resistant PC9ER lung cancer cells (de1746-750+T790M) (described in 16) were maintained in RPMI-1640 supplemented with 10% FCS (Life technology) and antibiotics. PC9ER cells resistant to AZD-9291, denoted as PC9ER-AZDR cells, were generated by incubating PC9ER cells with AZD-9291 for three months. The dose, initially provided at 0.5 nM, was increased every 4 days per 1.5 fold up to 2.5 μM. NL20 (ATCC; NL20_CRL-2503), an immortalized human bronchial epithelial cell line (ATCC, Rockville, Md.) was maintained in F12K medium as recommended by the ATCC. Co-cultures in a ratio of 1:1 of WI38 (ATCC; CCL-75) and PC9ER or H1975 cells were maintained in DME medium supplemented with sodium pyruvate and fetal calf serum (FCS 5%; Life Technology).
(§2) Cell growth and survival—Cell survival was assessed using the 3-(4,5-dimethylthiazol-2-yl)-2,5 diphenyl tetrazolium bromide (MTT) assay (Sigma Cat#M2003). Cells were plated on 96-wells plates (2,000 cells/well) in triplicates. The medium was changed the following day and cells were treated as indicated. Following 3-4 days of incubation, MTT reagent was added to the cells for one hour followed by dissolving of the formazan crystals in SDS-DMF solution. Absorbance was measured using a microplate reader, Biorad Model 680, at 570 nm.

[3] = tested on: PC9ER-AZDR cells; assay: Tumorigenic growth in-vivo, xenograft; details: erlotinib 50 mg/kg/d; AZD9291 1 and 5 mg/kg/d; 3×mAbs 0.2 mg/mouse/injection once every three days
Method: A derivative of PC9ER cells (erlotinib-resistant) was implanted in the flank of immune compromised mice. Vehicle, erlotinib (50 mg/kg/d), low-dose AZD9291 (L; 1 mg/kg/d) and high-dose AZD9291 (H; 5 mg/kg/d) were daily administrated by oral gavage, while the 3×mAbs (triple antibody combination; CTX, TRZ, 33; 0.2 mg/mouse/injection) were administrated once every three days by intraperitoneal injection. Data are means±SEM from 9 mice in each group.
Tumorigenic growth in-vivo—The animal studies were approved by the Weizmann Institute's Review Board (IRB). […] In experiments evaluating the effect of the TKI AZD-9291, Vehicle (Vehicle formulation: HPMC 0.5% (sigma Cat#56340), Tween80 0.1% (Sigma Cat #P8074 in water), Erlotinib at a dose of 50 mg/kg per injection, or AZD9291 at a dose of 1 or 5 mg/kg per injection were injected daily intraperitoneally. In one experiment (FIG. 17), mice were treated daily with Erlotinib at a dose of 50 mg/kg per injection until tumors reached a size of 800 mm^3 and only then were treated as indicated. Tumor volume was evaluated twice a week and body weight was evaluated once a week. Mice were euthanized when tumor size reached 1,500 mm^3. […] Survival of the tumor bearing mice was recorded and depicted by Kaplan-Meier analysis.

[4] = tested on: H1975 NSCLC cells; assay: Tumorigenic growth in-vivo, xenograft; design: species or system CD1-nu/nu mice; details: for tumor growth: mAbs intraperitoneally once every three days from day 11, total 200 μg per mouse per injection
Method: Tumorigenic growth in-vivo—The animal studies were approved by the Weizmann Institute's Review Board (IRB). CD1/nude mice (Harlan Laboratories) were randomized in groups of ten mice and injected subcutaneously in the right flank with H1975 lung cancer cells (3×10^6 per mouse) or with PC9ER lung cancer cells (4×10^6 per mouse). PBS or mAbs were injected intraperitoneally once every three days at a total dose of 200 μg per mouse per injection starting 11 days following cells injection, until tumors reached the size of 1,500 mm^3. In experiments evaluating the effect of the TKI AZD-9291, Vehicle (Vehicle formulation: HPMC 0.5% (sigma Cat#56340), Tween80 0.1% (Sigma Cat #P8074 in water), Erlotinib at a dose of 50 mg/kg per injection, or AZD9291 at a dose of 1 or 5 mg/kg per injection were injected daily intraperitoneally. In one experiment (FIG. 17), mice were treated daily with Erlotinib at a dose of 50 mg/kg per injection until tumors reached a size of 800 mm^3 and only then were treated as indicated. Tumor volume was evaluated twice a week and body weight was evaluated once a week. Mice were euthanized when tumor size reached 1,500 mm^3. Few of the tumors were harvested from mice at the indicated time points and taken for further evaluation. Survival of the tumor bearing mice was recorded and depicted by Kaplan-Meier analysis.

[5] = tested on: PC9ER NSCLC cells; assay: Tumorigenic growth in-vivo, xenograft; design: species or system CD1-nu/nu mice
Method: CD1/nude mice (Harlan Laboratories) were randomized in groups of ten mice and injected subcutaneously in the right flank with H1975 lung cancer cells (3×10^6 per mouse) or with PC9ER lung cancer cells (4×10^6 per mouse). PBS or mAbs were injected intraperitoneally once every three days at a total dose of 200 μg per mouse per injection starting 11 days following cells injection, until tumors reached the size of 1,500 mm^3. […] Few of the tumors were harvested from mice at the indicated time points and taken for further evaluation. Survival of the tumor bearing mice was recorded and depicted by Kaplan-Meier analysis.

[6] = tested on: H1975 cells; assay: MTT cell survival assay; format: cell-based, human; details: for ability to inhibit survival of cultured NSCLC cells: 4 days, versus other anti-EGFR, anti-HER2, anti-HER3 mAbs (FIG. 3)
Method: as §1, §2

[7] = tested on: PC9 cells; assay: MTT cell survival assay; format: cell-based, human; details: 3 days treatment with increasing doses
Method: as §1, §2

[8] = tested on: PC9ER cells; assay: MTT cell survival assay; format: cell-based, human; details: for ability to inhibit survival of cultured NSCLC cells: 4 days, versus other anti-EGFR, anti-HER2, anti-HER3 mAbs (FIG. 3)
Method: as §1, §2

[9] = tested on: EGFR, HER2, HER3, AKT, ERK and their phosphorylated forms in PC9ER cells; assay: Western blot time course of receptors and downstream pathways; format: cell-based, human; details: 10 μg/ml; for ERK activation / re-activation (phosphorylation): late peak at about 24 hours
Method: (§3) Western blot analysis—Cells were grown under specified conditions or treated as indicated. Following the cells were washed twice with cold PBS and scraped into lysis buffer [50 mM Hepes (pH 7.5), 10% glycerol, 150 mM NaCl, 1% Triton X-100, 1 mM EDTA, 1 mM EGTA, 10 mM NaF, 0.1 mM Na3VO4, and a complete protease inhibitor cocktail]. Thereafter, lysates were centrifuged at 14,000 g for 15 minutes at 4° C. The supernatant was used for subsequent procedures. Western blot analyses were conducted following protein separation using gel electrophoresis and transfer to nitrocellulose membranes. Immunoblotting was performed according to the antibody manufacturers' recommendation. Blocking was done using 5% milk in PBST (0.5% Tween20 Sigma Cat#P9416). Antibody binding to membrane blots was detected using horseradish peroxidase—secondary antibodies (Jackson ImmunoResearch Laboratories), followed by treatment with ECL Western blotting detection reagents (GE Healthcare).

[10] = tested on: EGFR, HER2, HER3 and phosphorylated forms in PC9ER and H1975 cells; assay: Western blot after long-term exposure to anti-EGFR mAb; format: cell-based, human; details: resistant cell lines
Method: as §3

[11] = 3 days treatment with increasing doses, EGFR T790M

`C=CC(=O)Nc1cc(Nc2nccc(-c3cn(C)c4ccccc34)n2)c(OC)cc1N(C)CCN(C)C` [AZD-9291] was tested, and the EGFR phosphorylation [1] was “remained phosphorylated”, the EGFR phosphorylation ([1]; listed as AZD9291) was “failed to inhibit EGFR phosphorylation” and the “survival / sensitivity (MTT)” value [2] was “lost sensitivity”. The “survival / sensitivity (MTT)” value ([2]; listed as AZD9291) was “clearly demonstrated resistance”, the “tumor growth / tumor volume” value [3] was “Neither erlotinib nor AZD9291 (at both low and high doses) were able to significantly inhibit tumor growth” and the body weight gain ([4]; AZD9291 5 mg/kg/day, compared with the triple mAb combination) was “slightly inhibited body weight gain”. For the same molecule, the “growth of the erlotinib-resistant human NSCLC tumor” value ([4]; AZD9291 5 mg/kg/day, triple combination of antibodies (CTX+TRZ+33)) was “comparably inhibited growth” and the “tumor relapse in post-treatment phase” value ([5]; erlotinib 1st line to approximately 550 mm^3, 2nd line treatment to day 50, then no treatment, AZD9291 1 or 5 mg/kg/d, 3×mAbs 0.2 mg/mouse/injection) was “relapse of tumors; also recorded: rapid and dramatic relapse”.

In the case of `C#Cc1cccc(Nc2ncnc3cc(OCCOC)c(OCCOC)cc23)c1` [erlotinib], the cell survival [6, 11] is reported as “exhibited resistance”, the cell survival [7] is reported as “strongly inhibited” and the cell survival [8, 11] is reported as “exhibited resistance”. For the same molecule, the “tumor growth / tumor volume” value [3] was “Neither erlotinib nor AZD9291 (at both low and high doses) were able to significantly inhibit tumor growth” and the “tumor growth, 1st line phase” value ([5]; erlotinib 50 mg/kg/d versus control group) was “no differences were noted”.

B1: mAb 565: anti-EGFR monoclonal antibody, clone 565, CNCM I-4262; VH SEQ ID NO: 1, Vkappa SEQ ID NO: 2 (antibody, V domains shown)
VH: QVQLQQSGAELVKPGASVKLSCKASGYTFTNYWIHWVKQRPGQGLEWIGEIGPINGRSNYIEKFKTKATLTVDKSSSTTYLHLSSLTSEDSAVYYCAREDDYDGKAMDYWGQGTSVTVSS
VL: DIVMTQSHKFXSTSVGDRVSITCKASQNVGTAVAWYQQKPGQSPKLLIYWTSTRHTGVPDRFTGTGSGTEFTLTINNVQSEDLADYFCQQYSGYSFGGGTKLELKR
modifications: not fully specified; anti-EGFR 565 VH amino acid sequence; EGFR 565 kappa amino acid sequence; (11)..(11) Xaa can be any naturally occurring amino acid
B1 was tested, and the inhibition of survival ([6]; 10 μg/ml, 4 days of incubation) was “approximately 40%”, the “ability to inhibit survival of cultured NSCLC cells” value (“ability to inhibit survival” below) ([6]; 10 μg/ml) was “superior ability to inhibit survival” and the inhibition of survival ([8]; 10 μg/ml, 4 days of incubation) was “approximately 40%”. The “ability to inhibit survival” value ([8]; 10 μg/ml) was “superior ability to inhibit survival”, the tumor growth [4] was “partly inhibited tumor growth” and the “EGFR protein level (degradation)” value [9] was “almost disappeared”. The “ERK activation / re-activation (phosphorylation)” value [9] was “hyper-phosphorylation”, the “phosphorylation of EGFR” value ([9]; listed as anti-EGFR mAb) was “initially reduced; also recorded: strikingly strong re-phosphorylation” and the “HER2 and HER3 and their active tyrosine phosphorylated forms” value [10] was “up-regulation”. The “expression levels of EGFR” value [10] was “gradual decrease”.

B2: mAb 12: anti-HER2 monoclonal antibody, clone N12, CNCM I-4112; VH SEQ ID NO: 3, Vkappa SEQ ID NO: 4 (antibody, V domains shown)
VH: QVQLQQSGAELVRPGDSVNLSCKASGYTFTSYWMYWIKQRPDQGLESIGNIHPNNGGTNYSGKFKNKASLTVDKSSTTAYMQLSSLTSEDSAVYFCARLTGIGMDYWGQGTSVIVSS
VL: B1 VL with X11M, K101R, L104I, R106L
modifications: of anti-HER2 N12 VH amino acid sequence; anti-HER2 N12 Vkappa amino acid sequence
In the case of B2, the “ability to inhibit survival” value ([6]; 10 μg/ml) is reported as “superior ability to inhibit survival”, the “ability to inhibit survival” value ([8]; 10 μg/ml) is reported as “superior ability to inhibit survival” and the tumor growth [4] is reported as “neither anti-HER2, anti-HER3 nor combined anti-HER2 and anti-HER3 treatment repressed tumor growth”. For the same molecule, the “ERK activation / re-activation (phosphorylation)” value [9] was “induced ERK hyper-phosphorylation”.

B3: mAb 33: anti-HER3 monoclonal antibody, clone NG33; VH SEQ ID NO: 5, Vkappa SEQ ID NO: 6 (antibody, V domains shown)
VH: DVQLQESGPGLVKPSQSLSLTCSVTGYSITSGFYWSWIRQFPGNKLEWMGYIAYDGTSNYNPSLKNRISITRDTSKNQFFLKLKSVTNEDTPTYYCARGGGYYGQLLDYWGQGTSVTVSS
VL: DARMTQSPSSLSASLGDRVTISCRASQDISNYLNWYQQKPDGTVKVLIYNTAKLHSGVPSRFSGSGSGTDYSLTISNLEQEDFATYFCQQGKTLPWTFGGGTKLELK
modifications: anti-HER3 33 VH amino acid sequence; anti-HER3 33 Vkappa amino acid sequence
B3 was tested, and the “ability to inhibit survival” value ([6]; 10 μg/ml) was “superior ability to inhibit survival”, the “ability to inhibit survival” value ([8]; 10 μg/ml) was “superior ability to inhibit survival” and the tumor growth [4] was “neither anti-HER2, anti-HER3 nor combined anti-HER2 and anti-HER3 treatment repressed tumor growth”.
